Data: patent US20230065562A1, “DUAL CONTROLS FOR THERAPEUTIC CELL ACTIVATION OR ELIMINATION” (Bellicum Pharmaceuticals, Inc., priority 2015, published 2023)
Numbering of substitutions follows the chain as printed. In names and notes the source's numbering stands. Entries after “also recorded” stand apart in the source; their conditions may differ. Where a SMILES comes first, the peptide text is derived from it. Where no end group is shown, it is not given here. The star is where a group is joined. Cbz = O=C(OCc1ccccc1)*; CH2F = FC*

Experiments:
Assay type in all cases: cell-based, human
transduced T cells = assay: T cell caspase assay (IncuCyte, caspase 3/7 green reagent)
Protocol: To enable detection of apoptosis using the IncuCyte instrument, 2 μM of IncuCyte™ Kinetic Caspase-3/7 Apoptosis reagent (Essen Bioscience, 4440) were add to each well to reach a total volume of 200 μl. The plates were centrifuged for 5 min at 400×g and placed inside the IncuCyte (Dual Color Model 4459) to monitor green fluorescence every 2-3 hours for a total of 48 hours at 10× objective. Image analysis was performed using the “Tcells_caspreagent_phase_green_10×_MLD” processing definition. The “Total Green Object Integrated Intensity” metric is used to quantify caspase activation. Each condition was performed in duplicates and each well was imaged at 4 different locations.
To enable detection of apoptosis using the IncuCyte instrument, 2 μM of IncuCyte™ Kinetic Caspase-3/7 Apoptosis reagent (Essen Bioscience, 4440) was added to each well to reach a total volume of 200 μl. The plates were centrifuged for 5 min at 400×g and placed inside the IncuCyte (Dual Color Model 4459) to monitor green fluorescence every 2-3 hours for a total of 48 hours at 10× objective. Image analysis was performed using the “Tcells_caspreagent_phase_green_10×_MLD” processing definition. The “Total Green Object Integrated Intensity” metric and the “Phase Object Confluence (Percent)” were used to quantify caspase activation. Each condition was performed in duplicate and each well was imaged at 4 different locations.

[1] = tested on: iCasp9M-transduced EBV-CTLs; assay: CID-induced apoptosis / loss of GFP+ cells in iCasp9M-transduced EBV-CTLs; conditions: 100 μM for 1 hour prior to adding CID
Protocol: CID (AP20187; ARIAD Pharmaceuticals) at indicated concentrations was added to transfected 293T cells or transduced CTLs. Adherent and nonadherent cells were harvested and washed with annexin binding buffer (BD Pharmingen, San Jose, Calif.). Cells were stained with annexin-V and 7-amino-actinomycin D (7-AAD) for 15 minutes according to the manufacturer's instructions (BD Pharmingen). Within 1 hour after staining, cells were analyzed by flow cytometry using CellQuest software (Becton Dickinson).
Inducible iCasp9M proficiency in CTLs was tested by monitoring loss of GFP-expressing cells after administration of CID; 91.3% (range, 89.5%-92.6% in 5 different donors) of GFP^+ cells were eliminated after a single 10-nM dose of CID. […] In all experiments, CTLs that survived CID treatment had low transgene expression with a 70% (range, 55%-82%) reduction in mean fluorescence intensity of GFP after CID. No further elimination of the surviving GFP^+ T cells could be obtained by an antigenic stimulation followed by a second 10-nM dose of CID. Therefore, the non-responding CTLs most likely expressed insufficient iCasp9M for functional activation by CID. To investigate the correlation between low levels of expression and CTL non-response to CID, CTLs were sorted for low, intermediate, and high expression of the linked marker gene GFP and mixed 1:1 with nontransduced CTLs from the same donor to allow for an accurate quantitation of the number of transduced T cells responding to CID-induced apoptosis.
The number of transduced T cells eliminated increased with the level of GFP transgene expression (see FIGS. 4A, 4B and 4C). To determine the correlation between transgene expression and function of iCasp9M, iCasp9M IRES.GFP-transduced EBV-CTL were selected for low (mean 21), intermediate (mean 80) and high (mean 189) GFP expression. Selected T-cells were incubated overnight with 10 nM CID and subsequently stained with annexin V and 7-AAD. Indicated are the percentages of annexin V+/7-AAD− and annexin V+/7-AAD+ T−. Selected T-cells were mixed 1:1 with non-transduced T-cells and incubated with 10 nM CID following antigenic stimulation. Indicated is the percentage of residual GFP-positive T-cells on day 7.
For GFPhigh-selected cells, 10 nM CID led to deletion of 99.1% (range, 98.7%-99.4%) of transduced cells. On the day of antigen stimulation, F-Casp9M.I.GFP-transduced CTLs were either untreated or treated with 10 nM CID. Seven days later, the response to CID was measured by flow cytometry for GFP. The percentage of transduced T cells was adjusted to 50% to allow for an accurate measurement of residual GFP^+ cells after CID treatment. The responses to CID in unselected (top row of and GFPhigh-selected CTLs (bottom row of was compared. The percentage of residual GFP^+ cells is indicated.
After overnight incubation with 10 nM CID, F-Casp9M.I.GFPhigh-transduced T cells had apoptotic characteristics such as cell shrinkage and fragmentation by microscopic evaluation. […] A representative example of 3 separate experiments is shown.

HEK293T/16 cells = assay: Secreted alkaline phosphatase (SEAP)-based surrogate killing assay of iCasp9 mutants; conditions: for basal activity: relative SEAP activity Units: no AP1903; for Basal Activity (relative to wild type/unmodified Caspase-9): SEAP assay without AP1903
primary T cells = assay: AP1903-dependent cytotoxicity in primary T cells transduced with iCasp9 variants; conditions: for killing of target T cells within 10 days: AP1903 at day 0 and day 4; for sensitivity to AP1903 in primary T cells: mostly single copy, 24-hour assay
Protocol: The effects of various caspase polypeptides at mostly single copy in primary T cells was assayed. This may reflect more accurately how these suicide genes will be used therapeutically.
Primary T cells from healthy donors (n=6) were transduced with retrovirus encoding mutant or wild-type iCasp9 or iCasp9-D330A, and the ΔCD19 cell surface marker. Following transduction, iCasp9-transduced T cells were purified using CD19-microbeads and a magnetic column.

## Q-LEHD-OPh (QLEHD-OPh)
Transduced T cells
  level not toxic to the T cells: > 100 µM
Transduced T cells; 20 nM of the respective activating ligands
  concentration efficiently inhibiting caspase-9 activation by iC9 and iRC9: ≤ 4 µM

## COC(=O)C[C@H](NC(=O)[C@H](C)NC(=O)[C@@H](NC(=O)OCc1ccccc1)C(C)C)C(=O)CF [zVAD-fmk] (Cbz-Val-Ala-Asp(OMe)-CH2F)
[1]
  effect on CID-induced apoptosis: inhibited

B1: N405Q: modified iCasp9, N405Q (SEQ ID NO: 26) (protein)
chain: GFGDVGALESLRGNADLAYILSMEPCGHCLIINNVNFCRESGLRTRTGSNIDCEKLRRRFSSLHFMVEVKGDLTAKKMVLALLELARQDHGALDCCVVVILSHGCQASHLQFPGAVYGTDGCPVSVEKIVNIFNGTSCPSLGGKPKLFFIQACGGEQKDHGFEVASTSPEDESPGSNPEPDATPFQEGLRTFDQLDAISSLPTPSDIFVSYSTFPGFVSWRDPKSGSWYVETLDDIFEQWAHSEDLQSLLLRVANAVSVKGIYKQMPGCFQFLRKKLFFKTS
HEK293T/16 cells; 1 μg iCasp9 per million cells
  basal activity: relative SEAP activity Units: 179081 Units
HEK293T/16 cells; 2 μg iCasp9 per million cells
  basal activity: relative SEAP activity Units: 175529 Units
HEK293T/16 cells
  Basal Activity (relative to wild type/unmodified Caspase-9): lower basal signaling; also recorded: lowered basal activity; also recorded: consistently lower basal activity; also recorded: lower basal activity than D330A; also recorded: very low basal activity; also recorded: Decreased
Primary T cells
  killing of target T cells within 10 days: indistinguishable from wild type
  sensitivity to AP1903 in primary T cells: less sensitive to AP1903

B2: D330A: modified iCasp9, D330A (SEQ ID NO: 24) (protein)
chain: B1 chain with D196A, Q271N
HEK293T/16 cells; 1 μg iCasp9 per million cells
  basal activity: relative SEAP activity Units: 148928 Units
HEK293T/16 cells; 2 μg iCasp9 per million cells
  basal activity: relative SEAP activity Units: 136863 Units
HEK293T/16 cells
  Basal Activity (relative to wild type/unmodified Caspase-9): lowered basal signaling; also recorded: lowered basal activity; also recorded: less basal activity than wild type Caspase-9; also recorded: Decreased
Primary T cells; AP1903 0-100 nM, 24 hours, 6 donors
  IC50 of AP1903 in transduced T cells versus wild-type iCasp9: significantly lower
Primary T cells
  sensitivity to AP1903 in primary T cells: more sensitive to AP1903 at low titers; also recorded: more sensitive to AP1903 than the wild type

B3: S307A: modified iCasp9, S307A (protein, UniProt P55211 1-416, looked up, variant S307A)
chain: MDEADRRLLRRCRLRLVEELQVDQLWDALLSRELFRPHMIEDIQRAGSGSRRDQARQLIIDLETRGSQALPLFISCLEDTGQDMLASFLRTNRQAAKLSKPTLENLTPVVLRPEIRKPEVLRPETPRPVDIGSGGFGDVGALESLRGNADLAYILSMEPCGHCLIINNVNFCRESGLRTRTGSNIDCEKLRRRFSSLHFMVEVKGDLTAKKMVLALLELAQQDHGALDCCVVVILSHGCQASHLQFPGAVYGTDGCPVSVEKIVNIFNGTSCPSLGGKPKLFFIQACGGEQKDHGFEVASTSPEDEAPGSNPEPDATPFQEGLRTFDQLDAISSLPTPSDIFVSYSTFPGFVSWRDPKSGSWYVETLDDIFEQWAHSEDLQSLLLRVANAVSVKGIYKQMPGCFNFLRKKLFFKTS
modifications: FKBP12-F36V fusion (iCasp9), CARD deleted
HEK293T/16 cells
  Basal Activity (relative to wild type/unmodified Caspase-9): Decreased

B4: ^402GCFNF^406QPTFT: modified iCasp9, residues 402-406 replaced by Caspase-8 QPTFT (protein, UniProt P55211 1-416, looked up, variant G402Q C403P F404T N405F F406T)
chain: B3 chain with A307S, G402Q, C403P, F404T, N405F, F406T
modifications: FKBP12-F36V fusion (iCasp9), CARD deleted
notes: modified iCasp9, residues 402-406 replaced by Caspase-8 QPTFT
HEK293T/16 cells
  Basal Activity (relative to wild type/unmodified Caspase-9): dead

B5: Y153A: modified iCasp9, Y153A (protein, UniProt P55211 1-416, looked up, variant Y153A)
chain: B3 chain with Y153A, A307S
modifications: FKBP12-F36V fusion (iCasp9), CARD deleted
HEK293T/16 cells
  Basal Activity (relative to wild type/unmodified Caspase-9): Decreased

B6: D330A-T317E: modified iCasp9 double mutant (protein, UniProt P55211 1-416, looked up, variant D330A T317E)
chain: B3 chain with A307S, T317E, D330A
modifications: FKBP12-F36V fusion (iCasp9), CARD deleted
notes: modified iCasp9 double mutant
HEK293T/16 cells
  Basal Activity (relative to wild type/unmodified Caspase-9): dead

B7: D330A-Y153F: modified iCasp9 double mutant (protein, UniProt P55211 1-416, looked up, variant D330A Y153F)
chain: B3 chain with Y153F, A307S, D330A
modifications: FKBP12-F36V fusion (iCasp9), CARD deleted
notes: modified iCasp9 double mutant
HEK293T/16 cells
  Basal Activity (relative to wild type/unmodified Caspase-9): dead

B8: F404Y: modified iCasp9, F404Y (protein)
chain: VDGFGDVGALESLRGNADLAYILSMEPCGHCLIINNVNFCRESGLRTRTGSNIDCEKLRRRFSSLHFMVEVKGDLTAKKMVLALLELARQDHGALDCCVVVILSHGCQASHLQFPGAVYGTDGCPVSVEKIVNIFNGTSCPSLGGKPKLFFIQACGGEQKDHGFEVASTSPEDESPGSNPEPDATPFQEGLRTFDQLDAISSLPTPSDIFVSYSTFPGFVSWRDPKSGSWYVETLDDIFEQWAHSEDLQSLLLRVANAVSVKGIYKQMPGCYNFLRKKLFFKTSASRA
HEK293T/16 cells
  Basal Activity (relative to wild type/unmodified Caspase-9): lowered basal activity; also recorded: Decreased
Primary T cells
  killing of target T cells within 10 days: indistinguishable from wild type

B9: S196D: modified iCasp9, S196D (protein)
chain: B8 chain with S64D, Y272F
HEK293T/16 cells
  Basal Activity (relative to wild type/unmodified Caspase-9): Decreased

B10: S144D: modified iCasp9, S144D (protein)
chain: B8 chain with S12D, Y272F
HEK293T/16 cells
  Basal Activity (relative to wild type/unmodified Caspase-9): Decreased

B11: S144A: modified iCasp9, S144A (protein)
chain: B8 chain with S12A, Y272F
HEK293T/16 cells
  Basal Activity (relative to wild type/unmodified Caspase-9): Decreased
